Substrate: O=c1[nH]c(=O)c2[nH]c(=O)[nH]c2[nH]1
Assay: purified protein, by the assay type
Conditions: other: 0.1M Na2HPO4/Na2H2PO4, pH 7.4, 24° C.

B1: pig uricase, SEQ ID NO:10 (Sus scrofa) (protein)
chain: MAHYRNDYKKNDEVEFVRTGYGKDMIKVLHIQRDGKYHSIKEVATSVQLTLSSKKDYLHGDNSDVIPTDTIKNTVNVLAKFKGIKSIETFAVTICEHFLSSFKHVIRAQVYVEEVPWKRFEKNGVKHVHAFIYTPTGTHFCEVEQIRNGPPVIHSGIKDLKVLKTTQSGFEGFIKDQFTTLPEVKDRCFATQVYCKWRYHQGRDVDFEATWDTVRSIVLQKFAGPYDKGEYSPSVQKTLYDIQVLTLGQVPEIEDMEISLPNIHYLNIDMSKMGLINKEEVLLPLDNPYGRITGTVKRKLTSRL
Km: 2.1 µM
kcat: 7.83 s⁻¹

— patent US8940861B2, “Variants of ancestral uricases and uses thereof” (Georgia Tech Research Corporation, priority 2010, dated 2015)
